Assay results reported in patent publication US20250346685A1 (published 2025).
Numbering of substitutions follows the chain as printed.

T1: cynomolgus monkey CD20 on CHO stably transfected cells (cynomolgus monkey, UniProt M4ZHZ6 1-297)
T1 construct: whole, on cells; also called Cynomolgus monkey CD20-CHO; CHO-cynomolgus monkey CD20
T1 sequence: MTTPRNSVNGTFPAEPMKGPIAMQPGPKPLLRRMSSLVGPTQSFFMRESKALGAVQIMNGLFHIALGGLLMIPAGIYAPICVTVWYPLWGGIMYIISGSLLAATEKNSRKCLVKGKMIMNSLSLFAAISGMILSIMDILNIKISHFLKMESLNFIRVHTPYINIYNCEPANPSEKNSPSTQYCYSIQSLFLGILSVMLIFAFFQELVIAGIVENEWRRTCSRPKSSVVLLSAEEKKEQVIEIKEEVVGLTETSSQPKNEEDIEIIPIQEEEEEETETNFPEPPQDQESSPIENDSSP

T2: human CD20 on cells (CHO-human CD20 stably transfected cells; SU-DHL-4, Raji, NALM-6 tumor cells) (human, UniProt P11836 1-297)
T2 construct: whole, on cells; also called Human CD20-CHO; cellular CD20 receptor
T2 sequence (looked up): T1 sequence with P25S, L31F, A51T, V157A, R217K, S226N, V227I, V239T

T3: Cynomolgus monkey CD3εγ-Fc heterodimer (cynomolgus monkey)
T3 construct: also called cynomolgus monkey CD3εγ protein
T3 chain 1: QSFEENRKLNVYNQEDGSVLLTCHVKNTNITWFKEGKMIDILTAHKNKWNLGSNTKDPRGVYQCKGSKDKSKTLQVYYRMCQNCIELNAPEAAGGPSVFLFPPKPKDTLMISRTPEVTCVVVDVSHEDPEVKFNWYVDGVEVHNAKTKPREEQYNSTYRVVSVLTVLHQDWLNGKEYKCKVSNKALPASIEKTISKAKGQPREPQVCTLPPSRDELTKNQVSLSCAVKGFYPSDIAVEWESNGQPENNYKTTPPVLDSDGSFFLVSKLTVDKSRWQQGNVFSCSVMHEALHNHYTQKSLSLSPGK
T3 chain 2: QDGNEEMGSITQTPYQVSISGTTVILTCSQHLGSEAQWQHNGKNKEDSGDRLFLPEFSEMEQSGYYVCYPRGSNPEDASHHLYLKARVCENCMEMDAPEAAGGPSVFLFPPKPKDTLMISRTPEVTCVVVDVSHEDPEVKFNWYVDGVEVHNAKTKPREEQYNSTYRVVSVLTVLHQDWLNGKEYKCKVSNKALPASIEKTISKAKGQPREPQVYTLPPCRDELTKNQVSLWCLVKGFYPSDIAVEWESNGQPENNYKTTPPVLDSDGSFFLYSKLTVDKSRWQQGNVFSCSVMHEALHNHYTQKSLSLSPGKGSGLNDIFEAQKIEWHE

T4: human CD3εγ-Fc heterodimer (human)
T4 construct: also called human CD3εγ recombinant protein; human CD3εγ protein
T4 chain 1: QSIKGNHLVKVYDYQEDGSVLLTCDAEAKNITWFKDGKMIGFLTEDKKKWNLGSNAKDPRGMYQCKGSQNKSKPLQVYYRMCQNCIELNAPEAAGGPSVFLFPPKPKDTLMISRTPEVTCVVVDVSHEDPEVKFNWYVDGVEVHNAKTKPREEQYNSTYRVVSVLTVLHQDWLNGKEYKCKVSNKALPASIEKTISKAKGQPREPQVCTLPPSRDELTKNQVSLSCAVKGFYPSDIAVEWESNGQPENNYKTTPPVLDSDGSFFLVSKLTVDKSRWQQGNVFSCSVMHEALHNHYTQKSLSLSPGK
T4 chain 2: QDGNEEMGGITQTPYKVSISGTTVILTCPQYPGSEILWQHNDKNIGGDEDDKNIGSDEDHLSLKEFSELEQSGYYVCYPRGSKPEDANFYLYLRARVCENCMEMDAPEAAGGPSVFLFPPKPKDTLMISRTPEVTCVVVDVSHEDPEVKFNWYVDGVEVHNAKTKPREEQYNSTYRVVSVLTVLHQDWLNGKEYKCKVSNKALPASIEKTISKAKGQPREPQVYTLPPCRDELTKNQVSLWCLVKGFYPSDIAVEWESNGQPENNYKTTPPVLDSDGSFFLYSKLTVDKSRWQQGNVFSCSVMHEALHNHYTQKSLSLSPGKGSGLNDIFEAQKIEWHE

B1: CD20 × CD3 κλ001 (bispecific antibody, human IgG4 S228P, kappa, lambda)
light 1: not shown
heavy 1: EVQLLESGGGVVQPGGSLRLSCAASGFTFNDYAMHWVRQAPGKGLEWVSTISWNSGSIGYADSVKGRFTISRDNSKNTLYLQMNSLRAEDTAVYYCAKDIQYGNYYYGMDYWGQGTLVTVSSASTKGPSVFPLAPCSRSTSESTAALGCLVKDYFPEPVTVSWNSGALTSGVHTFPAVLQSSGLYSLSSVVTVPSSSLGTKTYTCNVDHKPSNTKVDKRVESKYGPPCPPCPAPEFEGGPSVFLFPPKPKDTLMISRTPEVTCVVVDVSQEDPEVQFNWYVDGVEVHNAKTKPREEQFNSTYRVVSVLTVLHQDWLNGKEYKCKVSNKGLASSIEKTISKAKGQPREPQVCTLPPSQEEMTKNQVSLSCAVKGFYPSDIAVEWESNGQPENNYKTTPPVLDSDGSFFLVSKLTVDKSRWQEGNVFSCSVMHEALHNHYTQKSLSLSLGK
light 2: QAVVTQEPSLTVSPGGTVTLTCRSSTGAVTTSNYANWVQQKPGQAPRGLIGGTNKRAPWTPARFSGSLLGGKAALTITGAQAEDEAEYYCVLWYSNLWVFGGGTKLTVLGQPKAAPSVTLFPPSSEELQANKATLVCLISDFYPGAVTVAWKADSSPVKAGVETTTPSKQSNNKYAASSYLSLTPEQWKSHRSYSCQVTHEGSTVEKTVAPTECS
heavy 2: EVQLVESGGGLVQPGGSLRLSCAASGFTFNTYAMNWVRQAPGKGLEWVGRIRSKYNNYATYYADSVKDRFTISRDDSKNSLYLQMNSLKTEDTAVYYCVRHGNFGNSYVSWFAYWGQGTLVTVSSASTKGPSVFPLAPCSRSTSESTAALGCLVKDYFPEPVTVSWNSGALTSGVHTFPAVLQSSGLYSLSSVVTVPSSSLGTKTYTCNVDHKPSNTKVDKRVESKYGPPCPPCPAPEFEGGPSVFLFPPKPKDTLMISRTPEVTCVVVDVSQEDPEVQFNWYVDGVEVHNAKTKPREEQFNSTYRVVSVLTVLHQDWLNGKEYKCKVSNKGLASSIEKTISKAKGQPREPQVYTLPPCQEEMTKNQVSLWCLVKGFYPSDIAVEWESNGQPENNYKTTPPVLDSDGSFFLYSKLTVDKSRWQEGNVFSCSVMHEALHNHYTQKSLSLSLGK
notes: also called anti-CD20×CD3 κλ bispecific antibody
B2: CD20 × CD3 κλ005 (bispecific antibody, human IgG4 S228P, kappa, lambda)
light 1: not shown
heavy 1: B1 heavy 1
light 2: B1 light 2 with Q40E
heavy 2: B1 heavy 2 with Q39K
notes: Human IgG4 knob-into-hole Fc; charge variants only in the CD3 arm; also called anti-CD20×CD3 κλ bispecific antibody
B3: aCD3-hVH9/VL2 (antibody, human IgG4, V domains shown)
VH: EVQLVESGGGLVQPGGSLRLSCAASGFTFNTYAMNWVRKAPGKGLEWVGRIRSKYNNYATYYADSVKDRFTISRDDSKNSLYLQMNSLKTEDTAVYYCVRHGNFGNSYVSWFAYWGQGTLVTVSS
VL: QAVVTQEPSLTVSPGGTVTLTCRSSTGAVTTSNYANWVQEKPGQAPRGLIGGTNKRAPWTPARFSGSLLGGKAALTLSGAQPEDEAEYYCALWYSNLWVFGGGTKLTVL
notes: also called humanized anti-CD3 antibody hVH9/VL2
B4: aCD3-hVH9/VL5 (antibody, human IgG4, V domains shown)
VH: B3 VH
VL: B3 VL with L77I, S78T, P82A, A91V
notes: also called humanized anti-CD3 antibody hVH9/VL5

Tests used:
[1] = target: T1, cynomolgus monkey CD20 on CHO stably …; experiment: flow cytometry on CHO-cynomolgus monkey CD20 stably transfected cells
Procedure: (§1) CHO-human CD20 and CHO-cynomolgus monkey CD20 stably transfected cells prepared in Example 1 in logarithmic growth phase were adjusted to 5×10⁵ cells/ml with 4% calf serum (Hyclone, SH30626.06), 100 μl/well cell suspension was added to 96-well U-plate, 300 g thereof was centrifuged for 5 min, the supernatant was discarded, and 100 μL of gradient diluted antibody (with starting concentration of 1800 nM, 3-fold dilution, 10 gradients) was added to each well and incubated at 4° C. for 60 min. 50 μL/well Alexa Fluro647 labeled goat anti-human IgG Fc (1:300 dilution) was added to the secondary antibody and incubated on ice for 20 min. After washing once, 50 μL/well propidium iodide (PI) solution (1:300) was added, incubated for 5 min, and performed with detection by flow cytometry.

[2] = target: T2, human CD20 on cells (CHO-human CD20 …); experiment: flow cytometry on CHO-human CD20 stably transfected cells
Procedure: as §1

[3] = target: T3, Cynomolgus monkey CD3εγ-Fc heterodimer; experiment: ELISA, coated cynomolgus monkey CD3εγ protein
Procedure: (§2) Human CD3εγ protein and cynomolgus monkey CD3εγ protein were coated separately overnight at 4° C. After blocking with 2% skim milk, different dilutions of CD3 antibody were added to each well and incubated for 1 hour. After the secondary antibody was developed by adding HPR-labeled goat anti-human IgG Fc and TMB solution, the reaction was stopped with concentrated sulfuric acid, and the absorbance was read at 450 nm.

[4] = target: T4, human CD3εγ-Fc heterodimer; experiment: ELISA, coated human CD3εγ recombinant protein
Procedure: as §2, with “CD3εγ recombinant” for “CD3εγ”, “was” for “and cynomolgus monkey CD3εγ protein were”, “coated” for “coated separately”, “acid” for “acid,”

[5] = target: T5, human CD3 on T cells (Jurkat cells; human peripheral blood CD4+ and CD8+ T-cells) (human, UniProt P07766 23-207); experiment: flow cytometry on Jurkat cells
T5 construct: whole, on cells; also called CD4T; CD4 + T
Procedure: Jurkat cells in logarithmic growth phase were blocked with 3% BSA for 30 min, added to 96-well U-plate at 5×10^4 cells per well, centrifuged to discard the supernatant, and added with 50 μL of gradient diluted antibody (antibody concentration:from 30 μg/mL, with 3-fold dilution for 5 gradients) per well, and incubated at 4° C. for 1 hour. After washing off the primary antibody, a 1:300 dilution of Alexa Fluro647 labeled goat anti-human IgG Fc (Jackson ImmunoResearch, 109-606-170) was added to the secondary antibody, incubated for 45 min at 4° C., and, after washing, resuspended in 50 μL of PBS per well for FACS (iQue, intellicyt) detection.

| Binder | EC50 [1] | EC50 [2] | binding result [3] | affinity (ELISA) [4] | affinity (FACS) [5] |
| --- | --- | --- | --- | --- | --- |
| B1 | 12 nM | 10 nM |  |  |  |
| B2 | 14 nM | 9 nM |  |  |  |
| B3 |  |  | binds | 0.44 nM | 25 nM |
| B4 |  |  | binds | 0.42 nM | 20 nM |
